Reference: patent US20210253718A1, “FRIZZLED5 PROTEIN-BINDING AGENTS” (Modmab Therapeutics Corporation, priority 2016, published 2021)

Assays:
PATU8988S cells [1] = assay: Effect of anti-FZD5 Fabs on proliferation of pancreatic cancer cell lines (percent growth inhibition); assay type: cell-based, human; details: Fab 2 μg/ml
FZD9 CRD = biological target: T1, FZD9 CRD (Homo sapiens, UniProt O00144); assay: Immunofluorescence of anti-FZD5 Fab binding to CHO cells overexpressing Frizzled CRD; design: key: −: no binding; +: very weak binder; ++: weak binder; +++: good binder; ++++: very good binder
T1 construct: G35-A161; GPI anchor signal (C); expressed in transfected cells; host or cells: CHO cells, lentiviral pLenti-puro
T1 sequence (O00144 35-161): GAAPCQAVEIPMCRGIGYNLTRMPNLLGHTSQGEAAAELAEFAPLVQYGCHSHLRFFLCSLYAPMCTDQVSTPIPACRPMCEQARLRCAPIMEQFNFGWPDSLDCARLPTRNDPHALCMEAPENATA
Method in brief: (§1)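 CHO panel, 10 lines, each w/ one human FZD CRD-myc-GPI (lentiviral). Anti-FZD5 Fabs applied; surface binding scored by IF, cross-checked by FACS.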

FZD1 CRD = biological target: T2, FZD1 CRD (Homo sapiens, UniProt Q9UP38); assay: as above; design: key: −: no binding; +: very weak binder; ++: weak binder; +++: good binder; ++++: very good binder
T2 construct: D112-P238; GPI anchor signal (C); expressed in transfected cells; host or cells: CHO cells, lentiviral pLenti-puro
Method in brief: as §1

FZD7 CRD = biological target: T3, FZD7 CRD (Homo sapiens, UniProt O75084); assay: as above; design: key: −: no binding; +: very weak binder; ++: weak binder; +++: good binder; ++++: very good binder
T3 construct: D45-S169; GPI anchor signal (C); expressed in transfected cells; host or cells: CHO cells, lentiviral pLenti-puro
Method in brief: as §1

FZD2 CRD = biological target: T4, FZD2 CRD (Homo sapiens, UniProt Q14332); assay: as above; design: key: −: no binding; +: very weak binder; ++: weak binder; +++: good binder; ++++: very good binder
T4 construct: D35-P161; GPI anchor signal (C); expressed in transfected cells; host or cells: CHO cells, lentiviral pLenti-puro
Method in brief: as §1

RWP1 cells = assay: Effect of anti-FZD5 Fabs on proliferation of pancreatic cancer cell lines (percent growth inhibition); assay type: cell-based, human; details: Fab 10 μg/ml
Procedure: (§2) The effect of presently disclosed anti-FZD5 Fabs on proliferation of RNF43 loss-of-function mutant pancreatic cancer cell lines HPAFII, PATU8988S and ASPC-1; and on pancreatic cancer cell line RWP1, was tested at […] and 10 μg/ml.

PATU8988S cells [2] = assay: as above; assay type: cell-based, human; details: Fab 10 μg/ml
Procedure: as §2

ASPC-1 cells = assay: as above; assay type: cell-based, human; details: Fab 10 μg/ml
Procedure: as §2

HPAFII cells = assay: as above; assay type: cell-based, human; details: for percent growth inhibition, HPAFII 2 μg/ml: Fab 2 μg/ml; for percent growth inhibition, HPAFII 10 μg/ml: Fab 10 μg/ml
Procedure: as §2

[3] = tested on: CHO cells not expressing Frizzled CRD; assay: Flow cytometry of anti-FZD5 Fab binding to CHO cells not expressing Frizzled CRD (background)
Excerpt: The binding of anti-FZD5 Fabs to cell surface-expressed Frizzled protein was further determined for each member of the Frizzled family via flow cytometry and immunofluorescence analysis of a panel of 10 CHO cell lines, each ectopically over-expressing the extracellular cysteine-rich domain (CRD) of a different Frizzled protein family member.

B1: Fab-2898: anti-FZD5 Fab with antibody variable region Fv-2898; CDR SEQ ID NOs: 35, 36, 37, 76, 113, 152 (antibody, V domains shown)
VH: EVQLVESGGGLVQPGGSLRLSCAASGFNIYSYSMHWVRQAPGKGLEWVASIYSSSGSTSYADSVKGRFTISADTSKNTAYLQMNSLRAEDTAVYYCARAVWGLDYWGQGTLVTVSS
VL: DIQMTQSPSSLSASVGDRVTITCRASQSVSSAVAWYQQKPGKAPKLLIYSASSLYSGVPSRFSGSRSGTDFTLTISSLQPEDFATYYCQQWWGYYSLITFGQGTKVEIK
percent growth inhibition, PATU8988s 2 μg/ml (PATU8988S cells [1]): 4.53%
Immunofluorescence binding, Frizzled CRD overexpressed on CHO cells: FZD9 (FZD9 CRD): −
Immunofluorescence binding, Frizzled CRD overexpressed on CHO cells: FZD1 (FZD1 CRD): ++++
Immunofluorescence binding, Frizzled CRD overexpressed on CHO cells: FZD7 (FZD7 CRD): +++
Immunofluorescence binding, Frizzled CRD overexpressed on CHO cells: FZD2 (FZD2 CRD): +++
percent growth inhibition, RWP1 10 μg/ml (RWP1 cells): 26.93%
percent growth inhibition, PATU8988s 10 μg/ml (PATU8988S cells [2]): 0.97%
percent growth inhibition, ASPC-1 10 μg/ml (ASPC-1 cells): 25.15%
percent growth inhibition, HPAFII 2 μg/ml (HPAFII cells): 15.80%
percent growth inhibition, HPAFII 10 μg/ml (HPAFII cells): 21.87%
Median fluorescence, Frizzled CRD overexpressed on CHO cells: None [3]: 5.38

B2: Fab-2899: anti-FZD5 Fab with antibody variable region Fv-2899; CDR SEQ ID NOs: 35, 36, 38, 77, 114, 153 (antibody, V domains shown)
VH: EVQLVESGGGLVQPGGSLRLSCAASGFNLYYYYMHWVRQAPGKGLEWVASIYPSSGSTSYADSVKGRFTISADTSKNTAYLQMNSLRAEDTAVYYCARGALDYWGQGTLVTVSS
VL: DIQMTQSPSSLSASVGDRVTITCRASQSVSSAVAWYQQKPGKAPKLLIYSASSLYSGVPSRFSGSRSGTDFTLTISSLQPEDFATYYCQQWYSSYGLITFGQGTKVEIK
percent growth inhibition, PATU8988s 2 μg/ml (PATU8988S cells [1]): 4.94%
Immunofluorescence binding, Frizzled CRD overexpressed on CHO cells: FZD9 (FZD9 CRD): −
Immunofluorescence binding, Frizzled CRD overexpressed on CHO cells: FZD1 (FZD1 CRD): +++
Immunofluorescence binding, Frizzled CRD overexpressed on CHO cells: FZD7 (FZD7 CRD): +++
Immunofluorescence binding, Frizzled CRD overexpressed on CHO cells: FZD2 (FZD2 CRD): +++
percent growth inhibition, RWP1 10 μg/ml (RWP1 cells): 47.83%
percent growth inhibition, PATU8988s 10 μg/ml (PATU8988S cells [2]): −3.10%
percent growth inhibition, ASPC-1 10 μg/ml (ASPC-1 cells): 33.63%
percent growth inhibition, HPAFII 2 μg/ml (HPAFII cells): 36.18%
percent growth inhibition, HPAFII 10 μg/ml (HPAFII cells): 55.71%
Median fluorescence, Frizzled CRD overexpressed on CHO cells: None [3]: 4.91

B3: Fab-2923: anti-FZD5 Fab with antibody variable region Fv-2923; CDR SEQ ID NOs: 35, 36, 62, 100, 138, 162 (antibody, V domains shown)
VH: EVQLVESGGGLVQPGGSLRLSCAASGFNLYYYYMHWVRQAPGKGLEWVASIYSSSGSTSYADSVKGRFTISADTSKNTAYLQMNSLRAEDTAVYYCARGAMDYWGQGTLVTVSS
VL: DIQMTQSPSSLSASVGDRVTITCRASQSVSSAVAWYQQKPGKAPKLLIYSASSLYSGVPSRFSGSRSGTDFTLTISSLQPEDFATYYCQQWYGYSALITFGQGTKVEIK
percent growth inhibition, PATU8988s 2 μg/ml (PATU8988S cells [1]): −18.54%
Immunofluorescence binding, Frizzled CRD overexpressed on CHO cells: FZD9 (FZD9 CRD): −
Immunofluorescence binding, Frizzled CRD overexpressed on CHO cells: FZD1 (FZD1 CRD): −
Immunofluorescence binding, Frizzled CRD overexpressed on CHO cells: FZD7 (FZD7 CRD): −
Immunofluorescence binding, Frizzled CRD overexpressed on CHO cells: FZD2 (FZD2 CRD): −
percent growth inhibition, RWP1 10 μg/ml (RWP1 cells): 40.29%
percent growth inhibition, PATU8988s 10 μg/ml (PATU8988S cells [2]): −19.05%
percent growth inhibition, ASPC-1 10 μg/ml (ASPC-1 cells): 34.00%
percent growth inhibition, HPAFII 2 μg/ml (HPAFII cells): 15.14%
percent growth inhibition, HPAFII 10 μg/ml (HPAFII cells): 18.17%

B4: Fab-2926: anti-FZD5 Fab with antibody variable region Fv-2926; CDR SEQ ID NOs: 35, 36, 65, 103, 141, 173 (antibody, V domains shown)
VH: EVQLVESGGGLVQPGGSLRLSCAASGFNIYSSYMHWVRQAPGKGLEWVASIYPSSSSTSYADSVKGRFTISADTSKNTAYLQMNSLRAEDTAVYYCARGGLDYWGQGTLVTVSS
VL: DIQMTQSPSSLSASVGDRVTITCRASQSVSSAVAWYQQKPGKAPKLLIYSASSLYSGVPSRFSGSRSGTDFTLTISSLQPEDFATYYCQQWYHGGSLFTFGQGTKVEIK
percent growth inhibition, PATU8988s 2 μg/ml (PATU8988S cells [1]): −15.89%
Immunofluorescence binding, Frizzled CRD overexpressed on CHO cells: FZD9 (FZD9 CRD): −
Immunofluorescence binding, Frizzled CRD overexpressed on CHO cells: FZD1 (FZD1 CRD): −
Immunofluorescence binding, Frizzled CRD overexpressed on CHO cells: FZD7 (FZD7 CRD): −
Immunofluorescence binding, Frizzled CRD overexpressed on CHO cells: FZD2 (FZD2 CRD): −
percent growth inhibition, RWP1 10 μg/ml (RWP1 cells): 40.20%
percent growth inhibition, PATU8988s 10 μg/ml (PATU8988S cells [2]): −36.54%
percent growth inhibition, ASPC-1 10 μg/ml (ASPC-1 cells): 24.71%
percent growth inhibition, HPAFII 2 μg/ml (HPAFII cells): −6.88%
percent growth inhibition, HPAFII 10 μg/ml (HPAFII cells): 4.88%

B5: Fab-2911: anti-FZD5 Fab with antibody variable region Fv-2911; CDR SEQ ID NOs: 35, 36, 50, 89, 126, 163 (antibody, V domains shown)
VH: EVQLVESGGGLVQPGGSLRLSCAASGFNIYYSSMHWVRQAPGKGLEWVAYIYPYSGYTSYADSVKGRFTISADTSKNTAYLQMNSLRAEDTAVYYCARYFWWYGFDYWGQGTLVTVSS
VL: DIQMTQSPSSLSASVGDRVTITCRASQSVSSAVAWYQQKPGKAPKLLIYSASSLYSGVPSRFSGSRSGTDFTLTISSLQPEDFATYYCQQGPWYPFTFGQGTKVEIK
percent growth inhibition, PATU8988s 2 μg/ml (PATU8988S cells [1]): 8.24%
Immunofluorescence binding, Frizzled CRD overexpressed on CHO cells: FZD9 (FZD9 CRD): −
Immunofluorescence binding, Frizzled CRD overexpressed on CHO cells: FZD1 (FZD1 CRD): ++
Immunofluorescence binding, Frizzled CRD overexpressed on CHO cells: FZD7 (FZD7 CRD): +++
Immunofluorescence binding, Frizzled CRD overexpressed on CHO cells: FZD2 (FZD2 CRD): +++
percent growth inhibition, HPAFII 2 μg/ml (HPAFII cells): 2.08%
Median fluorescence, Frizzled CRD overexpressed on CHO cells: None [3]: 4.53

B6: Fab-2901: anti-FZD5 Fab with antibody variable region Fv-2901; CDR SEQ ID NOs: 35, 36, 40, 79, 116, 154 (antibody, V domains shown)
VH: EVQLVESGGGLVQPGGSLRLSCAASGFNISYSYMHWVRQAPGKGLEWVASIYSYSSYTYYADSVKGRFTISADTSKNTAYLQMNSLRAEDTAVYYCARSWYYWSPSSGMDYWGQGTLVTVSS
VL: DIQMTQSPSSLSASVGDRVTITCRASQSVSSAVAWYQQKPGKAPKLLIYSASSLYSGVPSRFSGSRSGTDFTLTISSLQPEDFATYYCQQGGFLITFGQGTKVEIK
percent growth inhibition, PATU8988s 2 μg/ml (PATU8988S cells [1]): −9.37%
Immunofluorescence binding, Frizzled CRD overexpressed on CHO cells: FZD9 (FZD9 CRD): −
Immunofluorescence binding, Frizzled CRD overexpressed on CHO cells: FZD7 (FZD7 CRD): +
Immunofluorescence binding, Frizzled CRD overexpressed on CHO cells: FZD2 (FZD2 CRD): −
percent growth inhibition, RWP1 10 μg/ml (RWP1 cells): 21.10%
percent growth inhibition, PATU8988s 10 μg/ml (PATU8988S cells [2]): −6.65%
percent growth inhibition, ASPC-1 10 μg/ml (ASPC-1 cells): 11.26%
percent growth inhibition, HPAFII 2 μg/ml (HPAFII cells): 6.38%
percent growth inhibition, HPAFII 10 μg/ml (HPAFII cells): 12.31%
Median fluorescence, Frizzled CRD overexpressed on CHO cells: None [3]: 3.75
